According to patent US20240209061A1, “FUSION PROTEINS AND USES THEREOF” (Pfizer Inc., priority 2020, published 2024):

Assays:
[1] = Thermal forced aggregation (SEC); type: physicochemical; conditions: 24 hours, PBS
Protocol: To assess the aggregation propensity of variant CD80-Fc fusion proteins, 1 mg/ml of CD80-Fc fusion protein was incubated in PBS at increasing temperatures for 24 hours. The samples were analyzed by SEC on an Agilent 1100 (Agilent Technologies, Germany) HPLC system using a YMC-Pack Diol-200 (YMC, Germany) analytical size exclusion chromatography column and PBS supplemented to 400 mM NaCl as running buffer. % aggregation was calculated from the loss of intact peak area. […] ND=Not Determined.

[2] = Viscosity (Anton Paar rheometer); type: physicochemical; conditions: 20 mM histidine, 8.5% sucrose, pH 5.8
Protocol: The viscosity of CD80-Fc fusion proteins was assessed at various concentrations. Lower viscosity is desired for subcutaneous administration, and providing optimal syringeability and minimal pain to patients. Viscosity was measured using an Anton Paar rheometer and a CP-25 measuring system at 150 rpm. The sample comprised CD80-Fc fusion proteins in 20 mM histidine and 8.5% sucrose at pH 5.8.

[3] = tested on: peripheral blood mononuclear cells (PBMC); assay: RESTORE cytokine release assay in absence of TCR stimulation; type: cell-based, human; design: IFNγ: unit not given beside the values
Protocol: The ability of variant CD80-Fc fusion proteins to promote cytokine release in the absence of TCR stimulation was assessed in the RESTORE (RESetting T cells to Original Reactivity) assay (Römer et al, Blood, 2011). Freshly isolated peripheral blood mononuclear cells (PBMC) from whole blood of several healthy donors were cultured for 48 hours at […] within RPMI1640 media supplemented with 10% autologous plasma, 10 mM HEPES, 1× GlutaMAX, 1× PenStrep, beta2-mercaptoethanol, NEAA and sodium pyruvate. Following the 48-hour incubation, PBMC were pelleted and resuspended at a final concentration of 10^6/ml with indicated soluble drug. Treatment was allowed for 48 hours then supernatant was harvested and assessed in IL-2 and IFNγ ELISA according to manufacturer's protocol (BioLegend).
Positive controls included CD28 superagonist anti-CD28 clone TGN1412 as IgG1 and IgG4 isotypes and anti-CD3. […] Values shown are the average of 3 technical replicates. D=Donor.

[4] = Pharmacokinetics in huFcRn transgenic mice; conditions: 0.1 mg/kg IV
Protocol: PK of CD80-Fc fusion proteins was also assessed in transgenic mice expressing the human neonatal Fc receptor (huFcRn) a-chain transgene under the control of its natural human promoter. Female mice were dosed intravenously with CD80-Fc fusion proteins at 0.1 mg/kg, and blood was collected at the timepoints indicated on the graph. Levels of CD80-Fc in mouse plasma were measured as described above.

**Q.** Which results are given for “CD80-WT-Fc: wild-type human CD80 extracellular domain fused to human IgG1 Fc (C220S) [reference compound]”?
**A.** % aggregation ([1]; Table 11, 40° C.): 18.0%; % aggregation ([1]; Table 11, 45.3° C.): 45.4%; % aggregation ([1]; Table 11, 49.4° C.): 50.8%; % aggregation ([1]; Table 12, 40° C.): 0.6%; % aggregation ([1]; Table 12, 45.3° C.): 64.9%; % aggregation ([1]; Table 12, 49.4° C.): 83.4%; Viscosity ([2]; 101.65 mg/ml): 35.7 cP; Viscosity ([2]; 132.25 mg/ml): 158.8 cP; IFNγ ([3]; Table 20, D222, 1 μg/ml): 4.3; IL-2 ([3]; Table 20, D222, 1 μg/ml): 7.7; IFNγ ([3]; Table 20, D222, 10 μg/ml): 3.3; IL-2 ([3]; Table 20, D222, 10 μg/ml): 9.3; IFNγ ([3]; Table 20, D281, 1 μg/ml): 3.0; IL-2 ([3]; Table 20, D281, 1 μg/ml): 3.0; IFNγ ([3]; Table 20, D281, 10 μg/ml): 3.3; IL-2 ([3]; Table 20, D281, 10 μg/ml): 2.0; IFNγ ([3]; Table 20, D462, 1 μg/ml): 6.0; IL-2 ([3]; Table 20, D462, 1 μg/ml): 1.7; IFNγ ([3]; Table 20, D462, 10 μg/ml): 7.3; IL-2 ([3]; Table 20, D462, 10 μg/ml): 2.0; IFNγ ([3]; Table 20, D547, 1 μg/ml): 4.0; IL-2 ([3]; Table 20, D547, 1 μg/ml): 9.0; IFNγ ([3]; Table 20, D547, 10 μg/ml): 3.3; IL-2 ([3]; Table 20, D547, 10 μg/ml): 5.3; IL-2 ([3]; Table 21, D132, 1.9 μg/ml): 0.0; IL-2 ([3]; Table 21, D132, 5.6 μg/ml): 0.0; IL-2 ([3]; Table 21, D132, 16.7 μg/ml): 0.3; IL-2 ([3]; Table 21, D149, 1.9 μg/ml): 0.3; IL-2 ([3]; Table 21, D149, 5.6 μg/ml): 4.3; IL-2 ([3]; Table 21, D149, 16.7 μg/ml): 0.0; IL-2 ([3]; Table 21, D149, 50 μg/ml): 0.0; IL-2 ([3]; Table 21, D379, 1.9 μg/ml): 3.3; IL-2 ([3]; Table 21, D379, 50 μg/ml): 0.3; IL-2 ([3]; Table 21, D399, 1.9 μg/ml): 0.0; IL-2 ([3]; Table 21, D399, 5.6 μg/ml): 0.0; IL-2 ([3]; Table 21, D399, 16.7 μg/ml): 0.0; IL-2 ([3]; Table 21, D399, 50 μg/ml): 3.0; IL-2 ([3]; Table 21, D417, 1.9 μg/ml): 5.7; IL-2 ([3]; Table 21, D417, 5.6 μg/ml): 10.7; IL-2 ([3]; Table 21, D417, 16.7 μg/ml): 0.3; IL-2 ([3]; Table 21, D417, 50 μg/ml): 0.3; IL-2 ([3]; Table 21, D518, 1.9 μg/ml): 4.7; IL-2 ([3]; Table 21, D518, 5.6 μg/ml): 4.7; IL-2 ([3]; Table 21, D518, 16.7 μg/ml): 1.3; IL-2 ([3]; Table 21, D518, 50 μg/ml): 2.7; IFNγ ([3]; Table 22, D132, 1.9 μg/ml): 14.3; IFNγ ([3]; Table 22, D132, 5.6 μg/ml): 0.0; IFNγ ([3]; Table 22, D132, 16.7 μg/ml): 0.0; IFNγ ([3]; Table 22, D132, 50 μg/ml): 12.3; IFNγ ([3]; Table 22, D149, 5.6 μg/ml): 0.0; IFNγ ([3]; Table 22, D149, 16.7 μg/ml): 0.0; IFNγ ([3]; Table 22, D149, 50 μg/ml): 5.7; IFNγ ([3]; Table 22, D379, 1.9 μg/ml): 0.3; IFNγ ([3]; Table 22, D379, 5.6 μg/ml): 0.0; IFNγ ([3]; Table 22, D379, 16.7 μg/ml): 0.0; IFNγ ([3]; Table 22, D379, 50 μg/ml): 0.0; IFNγ ([3]; Table 22, D399, 1.9 μg/ml): 0.0; IFNγ ([3]; Table 22, D399, 5.6 μg/ml): 0.0; IFNγ ([3]; Table 22, D399, 16.7 μg/ml): 0.0; IFNγ ([3]; Table 22, D399, 50 μg/ml): 18.3; IFNγ ([3]; Table 22, D417, 1.9 μg/ml): 0.0; IFNγ ([3]; Table 22, D417, 5.6 μg/ml): 146.7; IFNγ ([3]; Table 22, D417, 16.7 μg/ml): 13.3; IFNγ ([3]; Table 22, D417, 50 μg/ml): 0.0; IFNγ ([3]; Table 22, D518, 1.9 μg/ml): 0.0; IFNγ ([3]; Table 22, D518, 5.6 μg/ml): 0.0; IFNγ ([3]; Table 22, D518, 16.7 μg/ml): 0.0; IFNγ ([3]; Table 22, D518, 50 μg/ml): 0.0; AUC [4]: 97000 ng·h/mL; CL [4]: 20.2 mL/day/kg; T1/2 [4]: 80 h; Vdss [4]: 0.087 L/kg; Cmax ([4]; average of 3 animals): 2000 ng/mL
